{"source": "patent US20210371503A1", "key": {"[1]": {"molecular_target": "the antigen (SARS-CoV-2 spike (S) protein, form not stated in Example 13) (SARS-CoV-2) (UniProt P0DTC2)", "experiment": "SPR relative binding activity; undiluted 50 mg/mL, formulation F8, nebulized"}, "[2]": {"molecular_target": "the antigen (SARS-CoV-2 spike (S) protein, form not stated in Example 13) (SARS-CoV-2) (UniProt P0DTC2)", "experiment": "SPR relative binding activity; 1:5 diluted 10 mg/mL, formulation F5, nebulized"}, "[3]": {"molecular_target": "the antigen (SARS-CoV-2 spike (S) protein, form not stated in Example 13) (SARS-CoV-2) (UniProt P0DTC2)", "experiment": "SPR relative binding activity; undiluted 50 mg/mL, formulation F7, nebulized"}, "[4]": {"molecular_target": "the antigen (SARS-CoV-2 spike (S) protein, form not stated in Example 13) (SARS-CoV-2) (UniProt P0DTC2)", "experiment": "SPR relative binding activity; formulation F5, nebulized with Droh"}, "[5]": {"molecular_target": "the antigen (SARS-CoV-2 spike (S) protein, form not stated in Example 13) (SARS-CoV-2) (UniProt P0DTC2)", "experiment": "SPR relative binding activity; reference standard, initial"}, "[6]": {"molecular_target": "the antigen (SARS-CoV-2 spike (S) protein, form not stated in Example 13) (SARS-CoV-2) (UniProt P0DTC2)", "experiment": "SPR relative binding activity; 1:5 diluted 10 mg/mL, formulation F6, initial"}, "[7]": {"molecular_target": "the antigen (SARS-CoV-2 spike (S) protein, form not stated in Example 13) (SARS-CoV-2) (UniProt P0DTC2)", "experiment": "SPR relative binding activity; undiluted 50 mg/mL, formulation F6, nebulized"}, "[8]": {"molecular_target": "the antigen (SARS-CoV-2 spike (S) protein, form not stated in Example 13) (SARS-CoV-2) (UniProt P0DTC2)", "experiment": "SPR relative binding activity; 1:5 diluted 10 mg/mL, formulation F8, initial"}, "[9]": {"molecular_target": "the antigen (SARS-CoV-2 spike (S) protein, form not stated in Example 13) (SARS-CoV-2) (UniProt P0DTC2)", "experiment": "SPR relative binding activity; 1:5 diluted 10 mg/mL, formulation F7, nebulized"}, "[10]": {"molecular_target": "the antigen (SARS-CoV-2 spike (S) protein, form not stated in Example 13) (SARS-CoV-2) (UniProt P0DTC2)", "experiment": "SPR relative binding activity; 1:5 diluted 10 mg/mL, formulation F5, initial"}, "[11]": {"molecular_target": "the antigen (SARS-CoV-2 spike (S) protein, form not stated in Example 13) (SARS-CoV-2) (UniProt P0DTC2)", "experiment": "SPR relative binding activity; formulation F5, control unnebulized"}, "[12]": {"molecular_target": "the antigen (SARS-CoV-2 spike (S) protein, form not stated in Example 13) (SARS-CoV-2) (UniProt P0DTC2)", "experiment": "SPR relative binding activity; undiluted 50 mg/mL, formulation F7, initial"}, "[13]": {"molecular_target": "the antigen (SARS-CoV-2 spike (S) protein, form not stated in Example 13) (SARS-CoV-2) (UniProt P0DTC2)", "experiment": "SPR relative binding activity; formulation F5, nebulized with Aerogen Solo"}, "[14]": {"molecular_target": "the antigen (SARS-CoV-2 spike (S) protein, form not stated in Example 13) (SARS-CoV-2) (UniProt P0DTC2)"}, "[15]": {"molecular_target": "the antigen (SARS-CoV-2 spike (S) protein, form not stated in Example 13) (SARS-CoV-2) (UniProt P0DTC2)", "experiment": "SPR relative binding activity; 1:5 diluted 10 mg/mL, formulation F8, nebulized"}, "[16]": {"molecular_target": "the antigen (SARS-CoV-2 spike (S) protein, form not stated in Example 13) (SARS-CoV-2) (UniProt P0DTC2)", "experiment": "SPR relative binding activity; undiluted 50 mg/mL, formulation F8, initial"}, "[17]": {"molecular_target": "the antigen (SARS-CoV-2 spike (S) protein, form not stated in Example 13) (SARS-CoV-2) (UniProt P0DTC2)", "experiment": "SPR relative binding activity; undiluted 50 mg/mL, formulation F5, initial"}, "[18]": {"molecular_target": "the antigen (SARS-CoV-2 spike (S) protein, form not stated in Example 13) (SARS-CoV-2) (UniProt P0DTC2)", "experiment": "SPR relative binding activity; 1:5 diluted 10 mg/mL, formulation F7, initial"}, "[19]": {"molecular_target": "the antigen (SARS-CoV-2 spike (S) protein, form not stated in Example 13) (SARS-CoV-2) (UniProt P0DTC2)", "experiment": "SPR relative binding activity; 1:5 diluted 10 mg/mL, formulation F6, nebulized"}, "[20]": {"molecular_target": "the antigen (SARS-CoV-2 spike (S) protein, form not stated in Example 13) (SARS-CoV-2) (UniProt P0DTC2)", "experiment": "SPR relative binding activity; formulation F5, nebulized with eFlow-Rapid"}, "[21]": {"molecular_target": "the antigen (SARS-CoV-2 spike (S) protein, form not stated in Example 13) (SARS-CoV-2) (UniProt P0DTC2)", "experiment": "SPR relative binding activity; undiluted 50 mg/mL, formulation F6, initial"}, "[22]": {"molecular_target": "the antigen (SARS-CoV-2 spike (S) protein, form not stated in Example 13) (SARS-CoV-2) (UniProt P0DTC2)", "experiment": "SPR relative binding activity; formulation F5, nebulized with Pariboy"}, "[23]": {"molecular_target": "the antigen (SARS-CoV-2 spike (S) protein, form not stated in Example 13) (SARS-CoV-2) (UniProt P0DTC2)", "experiment": "SPR relative binding activity; undiluted 50 mg/mL, formulation F5, nebulized"}}, "note": "Like-named read-outs stand apart in the source and are kept apart here.", "data": [{"substance": "DZIF-10c (antibody)", "values": [{"measurement": "SPR Binding Activity (RLCA %)", "setting": "[1]", "value": 96, "unit": "%"}, {"measurement": "SPR Binding Activity (RLCA %)", "setting": "[2]", "value": 96, "unit": "%"}, {"measurement": "SPR Binding Activity (RLCA %)", "setting": "[3]", "value": 96, "unit": "%"}, {"measurement": "SPR Binding Activity (RLCA %)", "setting": "[4]", "value": 100, "unit": "%"}, {"measurement": "SPR Binding Activity (RLCA %)", "setting": "[5]", "value": 100, "unit": "%"}, {"measurement": "SPR Binding Activity (RLCA %)", "setting": "[6]", "value": 96, "unit": "%"}, {"measurement": "SPR Binding Activity (RLCA %)", "setting": "[7]", "value": 96, "unit": "%"}, {"measurement": "SPR Binding Activity (RLCA %)", "setting": "[8]", "value": 96, "unit": "%"}, {"measurement": "SPR Binding Activity (RLCA %)", "setting": "[9]", "value": 96, "unit": "%"}, {"measurement": "SPR Binding Activity (RLCA %)", "setting": "[10]", "value": 96, "unit": "%"}, {"measurement": "SPR Binding Activity (RLCA %)", "setting": "[11]", "value": 100, "unit": "%"}, {"measurement": "SPR Binding Activity (RLCA %)", "setting": "[12]", "value": 96, "unit": "%"}, {"measurement": "SPR Binding Activity (RLCA %)", "setting": "[13]", "value": 100, "unit": "%"}, {"measurement": "SPR Binding Activity (RLCA %)", "setting": "[14]", "value": 100, "unit": "%"}, {"measurement": "SPR Binding Activity (RLCA %)", "setting": "[15]", "value": 96, "unit": "%"}, {"measurement": "SPR Binding Activity (RLCA %)", "setting": "[16]", "value": 96, "unit": "%"}, {"measurement": "SPR Binding Activity (RLCA %)", "setting": "[17]", "value": 96, "unit": "%"}, {"measurement": "SPR Binding Activity (RLCA %)", "setting": "[18]", "value": 96, "unit": "%"}, {"measurement": "SPR Binding Activity (RLCA %)", "setting": "[19]", "value": 96, "unit": "%"}, {"measurement": "SPR Binding Activity (RLCA %)", "setting": "[20]", "value": 100, "unit": "%"}, {"measurement": "SPR Binding Activity (RLCA %)", "setting": "[21]", "value": 95, "unit": "%"}, {"measurement": "SPR Binding Activity (RLCA %)", "setting": "[22]", "value": 100, "unit": "%"}, {"measurement": "SPR Binding Activity (RLCA %)", "setting": "[23]", "value": 96, "unit": "%"}]}]}
